The experiment concerns the target human fibronectin (human) (UniProt P02751). Nature of the experiment: dual-polarization interferometry (DPI); 100 μg/mL FN immobilised on an amine-functionalised AnaChip, sealing agent, then samples injected; Tris-HCl pH 7.4 with 0.1 M NaCl; layer thickness and mass resolved.

From paper PMC9506415 come the findings set out here.

In turn, bovine gelatin (G9382, type B) had a resolved layer mass after adsorption of gelatin (3.68 ng/mm^2 before) of 3.86 ng/mm^2 and a resolved layer thickness after adsorption of gelatin (11.60 nm before) of 12.6 nm.
